Values joined by “and” are separate entries in the source; they are usually repeats but may differ in a detail not shown here. Equal values may be shown once.
Molecular target: the molecule itself
Assay: SEC; Superdex 200 HR 16/60, 10 mM Hepes, 150 mM NaCl, pH 7.5, 1 ml/min; dimer and tetramer separated; they do not interconvert in the pH interval 4 to 9

B1: soluble human dopamine β-hydroxylase, residues 40 to 617, FLAG-tagged (enzyme, UniProt P09172 40-617, looked up)
chain: SAPRESPLPYHIPLDPEGSLELSWNVSYTQEAIHFQLLVRRLKAGVLFGMSDRGELENADLVVLWTDGDTAYFADAWSDQKGQIHLDPQQDYQLLQVQRTPEGLTLLFKRPFGTCDPKDYLIEDGTVHLVYGILEEPFRSLEAINGSGLQMGLQRVQLLKPNIPEPELPSDACTMEVQAPNIQIPSQETTYWCYIKELPKGFSRHHIIKYEPIVTKGNEALVHHMEVFQCAPEMDSVPHFSGPCDSKMKPDRLNYCRHVLAAWALGAKAFYYPEEAGLAFGGPGSSRYLRLEVHYHNPLVIEGRNDSSGIRLYYTAKLRRFNAGIMELGLVYTPVMAIPPRETAFILTGYCTDKCTQLALPPSGIHIFASQLHTHLTGRKVVTVLVRDGREWEIVNQDNHYSPHFQEIRMLKKVVSVHPGDVLITSCTYNTEDRELATVGGFGILEEMCVNYVHYYPQTQLELCKSAVDAGFLQKYFHLINRFNNEDVCTCPQASVSQQFTSVPWNSFNRDVLKALYSFAPISMHCNKSSAVRFQGEWNLQPLPKVISTLEEPTPQCPTSQGRSPAGPTVVSIGGGKG
modifications: glycosylation at Asn64, Asn184, Asn344 and Asn566; intermolecular disulfides C528-C530 and C530-C528 between the two chains of the dimer
notes: human dopamine β-hydroxylase, residues 40 to 617; the first 39 residues (signal anchor for type II membrane proteins) left out to obtain soluble DBH; the dimeric fraction was crystallised; A SeMet-labelled form was used for phasing only; also called DBH; dopamine β-monooxygenase; not shown: FLAG, C-terminal, kept
For B1, the “stoichiometry N” value was 2 and 4.
